According to patent publication US20060057144A1 (published 2006):

B1: PsFcγRIIa (recombinant soluble human FcγRIIa protein produced in baculovirus-infected Sf-21 cells) (receptor)
chain: APPKAVLKLEPPWINVLQEDSVTLTCQGARSPESDSIQWFHNGNLIPTHTQPSYRFKANNNDSGEYTCQTGQTSLSDPVHLTVLFEWLVLQTPHLEFQEGETIMLRCHSWKDKPLVKVTFFQNGKSQKFSHLDPTFSIPQANHSHSGDYHCTGNIGYTLFSSKPVTITVQV
notes: Amplified from FcγRIIa LR cDNA; also called PsFc.RIIa; soluble FcγRIIa

Legend:
monomeric human IgG3 [1] = molecular target: T1, monomeric human IgG3 (human, UniProt P01860-1 1-377); assay: SPR equilibrium, two site fit, immobilised IgG3; 50% of the sites
T1 construct: Immobilised by amine coupling on a CM5 chip
Experimental: (§1) About 4000 to about 6000 response units (RU) of monomeric human immunoglobulin subclasses IgG1, IgG2, IgG3, and IgE (50 ug/ml of each) were covalently coupled to separate carboxymethylated dextran surface of each CM5 sensor-chips (available from BIAcore, Uppsala, Sweden) using a amine coupling kit (available from BIAcore), according to manufacturer's methods. […] Following administration of the protein, the immunoglobulin surface was regenerated on each chip using a buffer containing 50 mM diethylamine pH 11.5, and 1 M NaCl. […] Data points obtained from the IgE channels were subtracted to correct for refractive index differences.

monomeric human IgG1 [2] = molecular target: T2, monomeric human IgG1 (human); assay: SPR equilibrium, two site fit, immobilised IgG1; remaining 10% of the sites
T2 construct: Immobilised by amine coupling on a CM5 chip
Experimental: as §1

monomeric human IgG1 [3] = molecular target: T2, monomeric human IgG1; assay: SPR equilibrium, two site fit, immobilised IgG1; about 90% of the sites
Experimental: as §1

monomeric human IgG3 [4] = molecular target: T1, monomeric human IgG3; assay: SPR equilibrium, two site fit, immobilised IgG3; remaining 50% of the sites
Experimental: as §1

[5] = molecular target: B1; assay: SPR; FcγRIIa (50 µg/mL) premixed with a range of hexapeptide concentrations, passed over immobilised IgG3; against no peptide
Experimental: (§2) At the conclusion of the concentration dependence measurements all surfaces were regenerated using 50 mM diethylamine (pH 11.5), 1 M NaCl. The total response measured for each concentration of peptide was determined and plotted against the peptide concentration. The non-specific binding responses (IgE channel) were subtracted from binding to IgG1 or IgG3.

[6] = molecular target: B1; assay: SPR; FcγRIIa (50 µg/mL) premixed with a range of hexapeptide concentrations, passed over immobilised IgG1; against no peptide
Experimental: as §2

T1 sequence (P01860 other isoform, or with tags, fused parts or gaps): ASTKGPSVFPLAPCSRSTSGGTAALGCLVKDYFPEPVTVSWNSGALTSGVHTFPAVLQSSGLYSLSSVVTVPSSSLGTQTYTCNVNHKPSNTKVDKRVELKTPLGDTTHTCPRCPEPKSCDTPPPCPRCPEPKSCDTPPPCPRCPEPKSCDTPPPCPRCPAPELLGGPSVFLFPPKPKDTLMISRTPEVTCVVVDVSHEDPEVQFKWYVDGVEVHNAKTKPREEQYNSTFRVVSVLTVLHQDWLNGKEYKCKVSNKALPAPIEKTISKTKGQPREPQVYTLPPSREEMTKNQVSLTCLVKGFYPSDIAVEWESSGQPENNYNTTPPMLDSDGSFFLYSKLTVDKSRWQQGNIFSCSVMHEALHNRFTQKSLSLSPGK

Binder	Ka (monomeric human IgG3 [1])	Ka (monomeric human IgG1 [2])	Ka (monomeric human IgG1 [3])	Ka (monomeric human IgG3 [4])	fold enhancement of FcγRIIa binding to IgG3 [5]	fold enhancement of FcγRIIa binding to IgG1 [6]
B1	~2.7e+06 M⁻¹	~23000 M⁻¹	~2.1e+06 M⁻¹	~12000 M⁻¹	–	–
Ac-FQNGKS-NH2 [acetylated hexapeptide of sequence FQNGKS (Ac-Phe-Gln-Asn-Gly-Lys-Ser-NH2)]	–	–	–	–	1.6 fold	4 fold
